# Results taken from the supplement of paper PMC10126150.
# ± gives the standard deviation of the averaged measurements.
# Tested on: ATP
# Assay: switch fluorescence ratio, 500 uM ATP over buffer (Cy3 cluster intensity, sum of 5 cycles each) (fold (ratio)); higher = stronger signal-on switching upon ATP binding; sequences stand for … in TCGTCGGCAGCGTCAGATGTGTATAAGAGACAGTTTTTTTTTTTTTTTTTTTTTTTTT…TC
# Settings: aptamer strand: ATP DNA aptamer (quencher-CACCTGGGGGAGTATTGCGGAGGAAGG + anchor), 100 nM annealed; ATP concentration: 500 uM
# Summary of the method: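 Switching-strand clusters labelled with Cy3 on a modified Illumina MiSeq flow-cell were annealed to 100 nM quencher-labelled ATP aptamer, imaged in selection buffer, and re-imaged after 15 min with 500 uM ATP at 22 °C. This was done over five cycles with NaOH stripping and re-annealing in between. The fluorescence ratio is summed target-cycle over summed buffer-cycle Cy3 intensity per cluster, averaged per switch-domain sequence, excluding clusters outside 100-1000 RFU.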
# 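Note: ATP exposure 15 min at 22 °C before imaging.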
row,Sequence,switch fluorescence ratio
1,AAACTTCGCT,1.27 ± 0.25
2,CTTCACAGGG,1.06 ± 0.04
3,TCGGCGAGGG,0.977 ± 0.021
4,AGGGTAGCTA,0.958 ± 0.016
5,ATCGACGTGT,1.02 ± 0.02
6,TTTCAGGTAA,0.988 ± 0.017
7,TGTTAAAGCG,1.06 ± 0.049
8,GTTTCGGTTT,1.1 ± 0.096
9,AACCAGGATT,0.9714 ± 0.0074
10,GCTATGAAAG,0.995 ± 0.013
11,TTTTTTTTCC,1.15 ± 0.4
12,CGTGAGAAGT,0.9923 ± 0.0041
13,TAAGGGGATT,1.03 ± 0.047
14,GGATTGGACT,1 ± 0.019
15,CCATAGCAGG,3.97 ± 0.9
16,TAGTTGTTCT,0.962 ± 0.022
17,GAACTTGGG,1.01 ± 0.045
18,TTGGGGAGTT,1.01 ± 0.044
19,CATAGGATGG,0.947 ± 0.025
20,TGCCACTCCT,1.0495 ± 4.1e-05
21,TGACATGGTG,0.976 ± 0.018
22,CCGAAGGGGA,1.65 ± 0.88
23,AATTTGGTTT,1.02 ± 0.021
24,CGTTATATCC,1.06 ± 0.021
25,AACCGTCACA,1.202 ± 0.0059

row,Sequence,switch fluorescence ratio
1,GCGTTGGGGC,1 ± 0.054
2,TGTTGGGTTG,0.999 ± 0.015
3,TCGGCCCAGG,3.6 ± 1.4
4,TTGAACCCGA,1.01 ± 0.023
5,TGTAACTCAT,1 ± 0.011
6,GGGGAATCGT,0.948 ± 0.027
7,CGATGAAAGG,0.966 ± 0.023
8,TACTCTTTGT,1.015 ± 0.002
9,TGGGGCGGTT,0.979 ± 0.024
10,GGACGTAGTT,0.9578 ± 0.0095
11,GGACCGGCCG,1.01 ± 0.076
12,GCCGTTGCAT,1.022 ± 0.0019
13,TTTGTGTATG,0.9701 ± 0.0032
14,TGCGAAGGGT,0.9856 ± 0.0046
15,AAGAAGAGGT,1.15 ± 0.17
16,CGGAAAGAAA,1.06 ± 0.058
17,ACAGACTGAA,1.16 ± 0.019
18,TTATGGTGCT,0.945 ± 0.051
19,AACCGCGGGT,1.03 ± 0.018
20,GGAAGTTTTT,0.9946 ± 0.0079
21,AGAGACAGGG,1.05 ± 0.032
22,TGGAAGGTAT,0.9795 ± 0.0087
23,CAAGGGTAGG,1.04 ± 0.021
24,GCGGAAGGCG,1 ± 0.018
25,GGGGTCCAAG,1 ± 0.017

row,Sequence,switch fluorescence ratio
1,CTCATGAAAC,1.01 ± 0.046
2,GAGGTTTGTA,0.974 ± 0.013
3,CAGTGAGGTA,0.984 ± 0.023
4,ATTACTCACC,1.44 ± 0.03
5,CTCATGACGG,1.044 ± 0.0061
6,GGTTGGGTTA,1.033 ± 0.0083
7,TATTAGTACT,0.989 ± 0.011
8,TTTTATTTGG,0.983 ± 0.018
9,GTGGGGAAGT,0.995 ± 0.034
10,ACTGTTCTCG,1.01 ± 0.046
11,GCTGTGTGGG,1.03 ± 0.032
12,TTACTAAGGT,1.063 ± 0.01
13,TCCGGTCGAT,1.127 ± 0.0072
14,GAAATATAAT,1.012 ± 0.0066
15,CAGAGTCCTC,1.01 ± 0.027
16,TCGCTGGGAT,1.2 ± 0.27
17,AAGGAAGTTT,1.06 ± 0.18
18,AGCGCGATTC,1.99 ± 0.13
19,GGGAAGTGTG,0.979 ± 0.024
20,GGTTGCGGGT,0.9874 ± 0.0056
21,TCTGGGGTGG,1.16 ± 0.21
22,TGAGTTGGAG,0.9878 ± 0.002
23,GGTGGTGAGC,1 ± 0.026
24,ATTTCTTGGT,0.9751 ± 0.0083
25,CGAAGGGGTG,0.9749 ± 0.0032

row,Sequence,switch fluorescence ratio
1,TGTTGGGCTC,0.989 ± 0.047
2,CAATATTACT,1.01 ± 0.042
3,TGTTGAAATC,1.01 ± 0.076
4,TTGGTACTTA,0.995 ± 0.013
5,CTGATGGCGT,1 ± 0.0068
6,TTTTCGAATA,1.009 ± 0.005
7,TTCCAGGGGG,1.08 ± 0.089
8,TGTTATAGAT,0.987 ± 0.025
9,GGCGCATTAT,1.66 ± 0.061
10,GGGATTGCGG,1.12 ± 0.23
11,TTCAGTGTCG,1.01 ± 0.073
12,TTCATTACGT,0.996 ± 0.029
13,CCTAAGTGGG,1.02 ± 0.034
14,TAAAAAGCTC,1.01 ± 0.021
15,TGCTGGGCTG,1.01 ± 0.025
16,TGTTGGTTAG,0.989 ± 0.014
17,GATGCTTATG,1.01 ± 0.04
18,GCTGATGTTT,1.023 ± 0.0095
19,CCAGGTAACT,1.05 ± 0.018
20,AAAGGTTATC,1.018 ± 0.0098
21,TTCCTCCCCT,1.7 ± 0.82
22,CTTGGCGGGC,1.01 ± 0.04
23,AAATTGAGGG,1.02 ± 0.061
24,GAAAAGTAAG,1.018 ± 0.008
25,TTAAGAGTCT,1.02 ± 0.049

row,Sequence,switch fluorescence ratio
1,GATTATTCGT,0.99 ± 0.028
2,TTTTCATTAG,1.03 ± 0.026
3,ACGTTGCAGC,1.047 ± 0.006
4,GGAGGGGGAA,1 ± 0.031
5,TGCAAAAGGT,1.02 ± 0.087
6,AGGGTCAGGT,1 ± 0.013
7,TAGGGGTGAT,1.02 ± 0.047
8,TGTTGCAATA,1.24 ± 0.4
9,CGGTGCCTTG,0.978 ± 0.026
10,TGGAGTCGTG,0.9729 ± 0.0091
11,AAGCTCCATT,0.967 ± 0.016
12,GTGGGTTCAG,1 ± 0.018
13,GTGGATGCAT,1.01 ± 0.022
14,TGATGGGGAT,1.03 ± 0.017
15,AAGATACAGA,1.07 ± 0.016
16,TCGTTGGGGA,1 ± 0.018
17,TCCCGGTTTT,1.1 ± 0.11
18,ATGATGTCGG,1.03 ± 0.033
19,TGGTTTATTT,0.976 ± 0.01
20,TCGAAACTGG,1.09 ± 0.11
21,ACCCATGCGA,1.13 ± 0.036
22,GGATTACCCA,1.04 ± 0.021
23,TCTAAGTGAG,1.02 ± 0.016
24,TTTGTCGTCG,1.004 ± 0.01
25,AAAATAGATT,1.032 ± 0.0078

row,Sequence,switch fluorescence ratio
1,ATGTGTTGGT,1 ± 0.011
2,TGGTTATCTT,0.969 ± 0.011
3,TATAACGCGC,1.11 ± 0.061
4,TTCCGGGGAT,1.04 ± 0.044
5,TGGAAGGGTA,0.9903 ± 0.0012
6,CAATTTCGGT,0.996 ± 0.039
7,TGGGGTGCCG,1.12 ± 0.039
8,TTGACAAACG,1.1 ± 0.054
9,GTGCCCTGAC,1.29 ± 0.041
10,TCCTATATTG,0.986 ± 0.0023
11,TTAAAAGTGT,0.999 ± 0.026
12,GGGGGGCCCA,1.0208 ± 0.00082
13,CTTTGGGCAA,1.46 ± 0.089
14,TTTACGGAGA,1.03 ± 0.041
15,GGTAGTAGGC,1.014 ± 0.0019
16,ATGTTGCGGG,1 ± 0.041
17,AAAGAGGCGG,1.006 ± 0.0013
18,ATTCGAGGGG,1.03 ± 0.061
19,AAAGAGGTTT,0.985 ± 0.034
20,ACTCAGGTCC,1.077 ± 0.0054
21,CGGCGGGGGG,1.08 ± 0.22
22,CATTATGGAG,1 ± 0.047
23,TATGCTGGTT,1.05 ± 0.061
24,CAAAGGTGCA,1.09 ± 0.032
25,GGGTATTACT,1.03 ± 0.017

row,Sequence,switch fluorescence ratio
1,GATCCTACGG,0.972 ± 0.048
2,TTAAGAATGG,1.01 ± 0.014
3,AAGACTAGTT,0.999 ± 0.03
4,GACGTGGTTT,0.994 ± 0.046
5,GTCGTTTGGG,0.991 ± 0.027
6,TTGGTTTTGA,0.988 ± 0.042
7,CTCATAGCGG,1.02 ± 0.029
8,TGGGAGGATG,1.01 ± 0.039
9,GACCGGGTTC,1.02 ± 0.033
10,GATATGTGTG,0.991 ± 0.011
11,AATAAAAGGA,0.997 ± 0.013
12,TGGGTGAAAA,1.001 ± 0.0036
13,CGTATTTCAG,0.983 ± 0.011
14,CTGTCAGACT,1.03 ± 0.058
15,GGGGGGGCAC,1.01 ± 0.029
16,TTTTTTCCCT,1.08 ± 0.12
17,CAGTGGGGCT,1.016 ± 0.0057
18,TAAGGCCACG,0.9975 ± 0.0099
19,CGGGTGAGCT,1.11 ± 0.16
20,AATTCCTTGG,0.984 ± 0.034
21,ATGGTGGTGT,1.03 ± 0.013
22,CATGTTTTTG,1 ± 0.025
23,AGAAATGGGA,0.987 ± 0.012
24,GTGCTATTAT,0.993 ± 0.024
25,TCATTGGCAT,1.03 ± 0.037

row,Sequence,switch fluorescence ratio
1,GGGCTTGTGT,0.993 ± 0.032
2,TGAACCGCGA,2.96 ± 0.18
3,CGACGATGAC,5.46 ± 0.077
4,TCTAAAGTGT,0.983 ± 0.0088
5,CGTTGGCGAG,1.01 ± 0.031
6,GTTGTTGTGA,0.976 ± 0.02
7,ACTAGAAGAT,0.9829 ± 0.0038
8,AGGGATCGGT,0.979 ± 0.025
9,TTTTACTATG,0.9893 ± 0.0041
10,GGGAAAGCG,1.04 ± 0.036
11,CTGTATTAGT,1.02 ± 0.027
12,CTGTATTCGC,1.172 ± 0.0037
13,GCTGTGTCCA,0.993 ± 0.01
14,CTTTCAGGCT,0.984 ± 0.016
15,TTGATGTCAA,0.999 ± 0.056
16,CTGGAGGACT,1.026 ± 0.0098
17,ATAGCGGGGG,0.998 ± 0.031
18,TTTTGAAACT,0.9733 ± 0.0091
19,ATGGGTGGGG,1.01 ± 0.037
20,TATCGTACAG,1.06 ± 0.011
21,CTCTTTTGGG,0.9652 ± 0.0019
22,TCTCTGTCGG,1.05 ± 0.011
23,GGGGGCTATA,1.001 ± 0.0094
24,ATGGGAAGAC,1.06 ± 0.017
25,CGACGTTCGC,1.48 ± 0.037
